Assay [1] has as its target T1, human SIRP-α v2 D1 domain (human).
T1 construct: also called human v2; human α v2
Nature of the assay: SPR, antibody immobilised on GLC chip; Table M cell, 119 Mut/mut on human v2. The essentials: (§1)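 Protein A-purified antibodies were diluted to 80 nM in 10 mM sodium acetate pH 4.5 and amine-coupled (~1000 RU) to a GLC chip of a ProteOn XPR36 biosensor. SIRP analytes were injected one-shot at 100, 33, 11, 3.7, 1.2 and 0 nM in PBS pH 7.4 with 0.01% Tween-20 at 25° C. Association ran 90 s at 100 μL/min and dissociation 1200 s. KD came from double-referenced data fitted globally to a Langmuir model, as kd/ka.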
In general terms: SPR reads the build-up and loss of mass on a sensor chip optically.

Assay [2] concerns the target T2, cynomolgus SIRP-α D1 domain (SEQ ID NO:11) (cynomolgus, UniProt Q5TFQ8 30-148 (human entry), limits assumed).
T2 construct: also called cyno1
T2 chain: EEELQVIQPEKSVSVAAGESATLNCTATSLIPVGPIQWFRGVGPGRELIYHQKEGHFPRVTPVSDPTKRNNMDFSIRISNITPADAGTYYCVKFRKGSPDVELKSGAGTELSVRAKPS
Put plainly: SPR, antibody immobilised on GLC chip.

The target in assay [3] is T3, human SIRP-α v1 D1 domain (human, UniProt P78324 31-149).
T3 construct: also called human v1; human α v1
Nature of the assay: SPR, antibody immobilised on GLC chip.

In assay [4] the target is T4, human SIRP-α v1 D1 domain (human, UniProt P78324 31-149).
T4 construct: biotinylated and captured on avidin in the ELISA; also called human v1
Nature of the assay: SPR, antibody immobilised on GLC chip; sentence of the text that cites Table M. Put shortly:
as §1

In assay [5] the target is T5, human SIRP-α v2 D1 domain (human).
T5 construct: biotinylated and captured on avidin in the ELISA; also called human v2
The description is as above. Put shortly: as §1

Assay [6] has as its target T6, C57BL/6 mouse SIRP-α D1 domain (mouse (C57BL/6 strain), UniProt P97797 32-148).
T6 sequence: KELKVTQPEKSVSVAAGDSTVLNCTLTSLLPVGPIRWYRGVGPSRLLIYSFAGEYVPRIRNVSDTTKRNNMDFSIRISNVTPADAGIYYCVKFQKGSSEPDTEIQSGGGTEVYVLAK
Put plainly: SPR, antibody immobilised on GLC chip. As to the method: (§2) All experiments were performed at 25° C. using a SPR-based ProteOn XPR36 biosensor (BioRad, Inc, Hercules, Calif.) equipped with GLC or NLC sensor chips. […] Purification was carried out by standard Protein A affinity column chromatography and eluted antibodies were stored in PBS buffer.
(§3) For the method using GLC chip, the analytes were injected and flowed over anti-SIRPα antibodies immobilized (˜1000 RUs) on GLC chips using Proteon™ Amine Coupling Kit. For the immobilization step, GLC chip was activated with EDAC/Sulpho-NHS 1:1 (Biorad) diluted 1/100 for 300 s at 25 μL/min. Anti-SIRPα antibodies were diluted to 80 nM concentration in 10 mM sodium acetate buffer pH 4.5 and immobilized to the chip at 30 μL/min for 50 s. Chip was inactivated with ethanolamine for 300 s at 25 μL/min. The analytes (e.g., SIRP-α from different species, SIRP-β, SIRP-γ) were injected in a “one-shot” kinetic mode at nominal concentrations of 100, 33, 11, 3.7, 1.2 and 0 nM. Association times were monitored for 90 s at 100 μL/min, and dissociation times were monitored for 1200 s. The surfaces were regenerated with a 2:1 v/v blend of Pierce IgG elution buffer/4M NaCl. […]

Assay [7] concerns the target T7, BALB/c mouse SIRP-α D1 domain (mouse (BALB/c strain)).
T7 chain: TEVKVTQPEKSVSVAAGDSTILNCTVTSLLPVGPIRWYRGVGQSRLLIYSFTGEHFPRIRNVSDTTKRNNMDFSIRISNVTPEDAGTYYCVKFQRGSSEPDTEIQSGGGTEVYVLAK
Put plainly: SPR, antibody immobilised on GLC chip. As to the method: as §2, §3

Assay [8] addresses T8, NOD mouse SIRP-α D1 domain (mouse (NOD strain)).
T8 chain: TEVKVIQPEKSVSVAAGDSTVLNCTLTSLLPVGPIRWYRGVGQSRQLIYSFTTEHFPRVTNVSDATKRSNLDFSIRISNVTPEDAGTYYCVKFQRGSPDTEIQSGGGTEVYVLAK
Put plainly: SPR, antibody immobilised on GLC chip. On the procedure:
as §2, §3

The target in assay [9] is T2, cynomolgus SIRP-α D1 domain (SEQ ID …). Put plainly: SPR, antibody immobilised on GLC chip. As to the method:
as §2, §3

Assay [10] addresses T9, human SIRPγ isoform 1 (human, UniProt Q9P1W8 29-147).
T9 construct: also called sirpg; sirp-g
Nature of the assay: SPR, antibody immobilised on GLC chip. On the procedure: as §2, §3

In assay [11] the target is T3, human SIRP-α v1 D1 domain. Nature of the assay: SPR, antibody immobilised on GLC chip. On the procedure:
as §2, §3
This is another data set of the same source.

In assay [12] the target is T1, human SIRP-α v2 D1 domain. Put plainly: SPR, antibody immobilised on GLC chip. As to the method: as §2, §3
Assay [13] deals with T10, NOD mouse SIRP-α D1 domain (mouse (NOD strain)).
T10 construct: also called mouse NOD SIRPα
T10 chain: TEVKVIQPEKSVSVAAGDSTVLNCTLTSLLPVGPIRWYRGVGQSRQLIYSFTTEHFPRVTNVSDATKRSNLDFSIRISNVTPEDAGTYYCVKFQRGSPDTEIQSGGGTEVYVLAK
Nature of the assay: ELISA, target coated on the plate, scFv-Fc titrated from 0.008 to about 1 µg/ml, OD 405. As to the method: (§4) ELISA assays were carried out to screen binding of antibody clones to SIRP analytes and SIRP-α:CD47 complex. […] Plates were blocked with PBS™ (Phosphate Buffered Saline pH 7.4, 0.05% Tween®20 polysorbate, 3% milk), 50 ul of supernatant containing the secreted scFv-Fc are added for 1 hr at room temp. Plates were washed with PBST. 50 ul of anti-hFc-HRP (1:5000 Rockland 609-4303) added for 1 hr at room temp. Plates were washed with PBST. TMB was developed for 5 min and stopped with 1N HCl. ELISA results were read using BioTek Synergy H1 Hybrid Reader. The corresponding proteins used for the assay and described here are: human SIRPα V1 (SEQ ID NO: 5); human SIRPα V2 (SEQ ID NO:6); cynomolgus SIRPα (SEQ ID NO:11); mouse NOD SIRPα (SEQ ID NO: 8); human SIRPγ (SEQ ID NO: 15); CD47 (SEQ ID NO: 16); high affinity SIRPα V1 (SEQ ID NO: 42); high affinity SIRPα V2 (SEQ ID NO:17).
On the technique in general: In an ELISA, binding on a coated surface is turned into a signal by an enzyme label.

The target of assay [14] is T11, human SIRPγ isoform 1 (human, UniProt Q9P1W8 29-147).
T11 construct: also called human SIRP-γ v1; sirpg
The assay is described as above. As to the method: as §4

In assay [15] the target is T5, human SIRP-α v2 D1 domain. The description is as above. On the procedure: as §4
Assay [16] deals with T6, C57BL/6 mouse SIRP-α D1 domain. Put plainly: SPR, Langmuir fit.
For assay [17], the target named is T7, BALB/c mouse SIRP-α D1 domain. Nature of the assay: SPR, Langmuir fit.
Assay [18] addresses T8, NOD mouse SIRP-α D1 domain. Put plainly: SPR, Langmuir fit.
In assay [19] the target is T12, cynomolgus SIRP-α D1 domain (SEQ ID NO:12) (cynomolgus, UniProt Q5TFQ8 30-148 (human entry), limits assumed).
T12 construct: also called cyno2; Cyno2
T12 chain: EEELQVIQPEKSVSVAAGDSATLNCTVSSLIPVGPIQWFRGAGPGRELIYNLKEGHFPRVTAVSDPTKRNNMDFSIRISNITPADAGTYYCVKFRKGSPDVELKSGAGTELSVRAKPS
Put plainly: SPR, Langmuir fit.

The target in a further assay is T13, human SIRPβ isoform 1 (human, UniProt O00241 30-148).
T13 construct: also called sirpb1; Sirpb1
Nature of the assay: SPR, Langmuir fit.

For assay [20], the target named is T2, cynomolgus SIRP-α D1 domain (SEQ ID …). Put plainly: SPR, Langmuir fit.
The next assay has as its target T14, human SIRPβ isoform 2 (human, UniProt Q5TFQ8 30-148).
T14 construct: also called Sirpb2; beta isoform 2
Put plainly: SPR, Langmuir fit.

For assay [21], the target named is T9, human SIRPγ isoform 1. Put plainly: SPR, Langmuir fit.
The target of assay [22] is T3, human SIRP-α v1 D1 domain. Put plainly: SPR, Langmuir fit.
In assay [23] the target is T1, human SIRP-α v2 D1 domain. Put plainly: SPR, Langmuir fit.

T13 sequence (O00241 30-148 limits assumed): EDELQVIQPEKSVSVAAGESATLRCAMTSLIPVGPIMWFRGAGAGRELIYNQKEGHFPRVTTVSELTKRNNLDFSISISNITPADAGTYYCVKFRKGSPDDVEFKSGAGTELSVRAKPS
T14 sequence (Q5TFQ8 30-148 limits assumed): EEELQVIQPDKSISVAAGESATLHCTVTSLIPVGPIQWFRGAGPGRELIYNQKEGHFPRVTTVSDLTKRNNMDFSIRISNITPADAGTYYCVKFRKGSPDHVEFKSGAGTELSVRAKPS

B1: antibody 119 variant Mut/mut (VL mut all / VH mut) (antibody, human IgG1, V domains shown)
VH: EVQLLESGGGVVQPGGSLRLSCAASGFSFSNFAVTWVRQAPGKGLEWVSTIGSGDTYYADSVKGRFTISRDNSKNTLYLQMNSLRAEDTAVYYCAKDSTVSWSGDFFDYWGQGTLVTVSS
VL: EIVLTQSPATLSVSPGERATLSCRASQNVKNDLAWYQQKPGQAPRLLIYAARIRETGIPARFSGSGSGTEFTLTISSLQSEDFAVYYCQQYYDWPPFTFGGGTKVEIK
notes: Human IgG1 with L234A/L235A/G237A/N297A; Labels are in the order VL/VH
Consider B1, for which the Kd in assay [1] was 0.0875 nM; in assay [2], 0.195 nM; in assay [3] it was 0.317 nM.

B2: 119 antibody variant with mutated heavy and light chains (antibody, human IgG1, V domains shown)
VH: EVQLLESGGGVVQPGGSLRLSCAASGFSFSNFAVTWVRQAPGKGLEWVSTIGSGDTYYADSVKGRFTISRDNSKNTLYLQMNSLRAEDTAVYYCAKDSTVSWSGDFFDYWGQGTLVTVSS
VL: EIVLTQSPATLSVSPGERATLSCRASQNVKNDLAWYQQKPGQAPRLLIYAARIRETGIPARFSGSGSGTEFTLTISSLQSEDFAVYYCQQYYDWPPFTFGGGTKVEIK
notes: human IgG1 with L234A, L235A, G237A, N297A
On to B2, for which the figures for the Kd in assay [4] and in assay [5] were 0.317 nM and 0.0875 nM, respectively.

B3: antibody 136 variant MutRv_I2T/mut_V34M (antibody, human IgG1, V domains shown)
VH: EVQLVESGGGVVQPGRSLRLSCAASGFTFSSYDMNWVRQAPGKGLEWVSLISGSGEIIYYADSVKGRFTISRDNSKNTLYLQMNSLRAEDTAVYYCAKENNRYRFFDDWGQGTLVTVSS
VL: ETVLTQSPGTLSLSPGERATLSCRASQSVYTYLAWYQQKPGQAPRLLIYGASSRATGIPDRFSGSGSGTEFTLTISSLQSEDFAVYYCQQYYDRPPLTFGGGTKVEIK
notes: Human IgG1 with L234A/L235A/G237A/N297A; Labels are light chain/heavy chain
With B3, the Kd in assay [6] came out at 13.8 nM; in [7], 0.361 nM; in assay [8], 0.596 nM; in assay [9], 2.11 nM; with human SIRPγ isoform 1 [10], 33.5 nM; in assay [11], 0.551 nM. Also, the affinity in assay [12], expressed as Kd, was 1.74 nM.

B4: S138 (scFv)
scFv: EIVLTQSPGTLSVSPGERVILTCRASQSVDTYNLAWYQQKPGQAPRLLIYDLSTRATGIPDRFSGSGSGTEFTLTINSLEPEDFAVYYCHQYYDWPPYTFGGGTKVEIKGQSSRSSGGGGSSGGGGSDVQLVESGGGVVRPGESLRLSCAASGFTFSNYAMNWVRQAPGEGLEWVSGISGRGGDTYYADSVKGRFTISRDNSKNTLYLQMNSLRAEDTAIYYCAKGTWNYGSFDYWGLGTLVTVSSSLDPKSSDKTDTCPPCPAPELLGGPSVFLFPPKPKDTLMISRTPEVTCVVVDVSHEDPEVKFNWYVDGV
notes: also called clone S138
On to B4, for which the binding result (in assay [13]; with human SIRPγ isoform 1 [14]; in [15]) was “no binding (tested: about 1 µg/ml)” throughout.

B5: AB3 (as in Table J1) (antibody, V domains shown)
VH: AVTLDESGGGLQTPGGALSLVCKASGFIFSDYGMNWVRQAPGKGLEFVAQITSGSRTYYGAAVKGRATISRDNRQSTVKLQLNNLRAEDTGIYFCARDFGSGVGSIDAWGNGTEVIVSS
VL: ALTQPASVSANLGGTVKITCSGSRGRYGWYQQRSPGSAPVTVIYRDNQRPSNIPSRFSSSTSGSTSTLTITGVQADDESVYFCGSYDGSIDIFGAGTTLTVL
notes: also called antibody 3
On to B5, for which the Kd in [16] came out at 3.65 nM; in [17], 1.16 nM; in [18], 1.63 nM; in assay [19] it was 2.85 nM; with human SIRPβ isoform 1 it was 1.63 nM; in assay [20], 2.29 nM. Besides, the Kd with human SIRPβ isoform 2 turned out to be 0.0678 nM; with human SIRPγ isoform 1 [21], 83.6 nM; in [22] it was 0.162 nM; in [23] it was 0.0767 nM.

One may read the Kd as the concentration at which binding is half-saturated. Read a low Kd as a tighter complex.

Source of the values: US20210363269A1 (ALX ONCOLOGY, published 2021).
